Patent publication US20180207278A1 (Amgen, published 2018)

Columns and labels:
[1] = biological target: T1, GM-CSF (immobilized on the SPR sensor chip); test: SPR (Biacore 3000, GM-CSF immobilized on CM5 chip); antibody 5.4 mg/ml in 20 mM acetate + 250 mM threonine after 14 days at 55 C
T1 construct: also called immobilized GM-CSF; Granulocyte-macrophage colony stimulating factor
Method: (§1) The surface plasmon resonance (SPR) method was established to determine the degree of antibody binding activity to immobilized GM-CSF (Biacore 3000/CM5 sensor chip/HBS-EP running buffer). The SPR method was qualified by performing a nine-point range test, from which precision (six replicate injections) and linearity (triplicate standard curves) were determined and tested.
(§2) […] Previous studies indicated stabilizing effects of: 20 mM acetate pH 5; 20 mM histidine pH 6; 250 mM glutamic acid; 250 mM threonine, 6% (w/v) sorbitol and 6% (w/v) mannitol. […] Antibody in 1×PBS was included as a control. At T0, T7 and T14 (days), samples were analyzed by SE-HPLC and SPR.

[2] = biological target: T1, GM-CSF (immobilized on the SPR sensor …); test: SPR (Biacore 3000, GM-CSF immobilized on CM5 chip); antibody 5.4 mg/ml in 1xPBS after 14 days at 55 C
Method: as §1, §2

[3] = biological target: T1, GM-CSF (immobilized on the SPR sensor …); test: SPR (Biacore 3000, GM-CSF immobilized on CM5 chip); antibody 5.4 mg/ml in 20 mM acetate + 250 mM glutamic acid after 14 days at 55 C
Method: as §1, §2

[4] = biological target: T1, GM-CSF (immobilized on the SPR sensor …); test: SPR (Biacore 3000, GM-CSF immobilized on CM5 chip); antibody 5.4 mg/ml in 20 mM histidine + 250 mM threonine after 14 days at 55 C
[5] = biological target: T1, GM-CSF (immobilized on the SPR sensor …); test: SPR (Biacore 3000, GM-CSF immobilized on CM5 chip); antibody 5.4 mg/ml in formulations 5-16 of Table 1 (all with mannitol or sorbitol) after 14 days at 55 C
Method: as §1, §2

[6] = biological target: T1, GM-CSF (immobilized on the SPR sensor …); test: SPR (Biacore 3000, GM-CSF immobilized on CM5 chip); antibody 5.4 mg/ml in 20 mM histidine + 250 mM glutamic acid after 14 days at 55 C
Method: as §1, §2

binding activity relative to T0 [1]: 26% | binding activity relative to T0 [2]: 62% | binding activity relative to T0 [3]: 19% | binding activity relative to T0 [4]: 85% | binding activity relative to T0 [5]: > 93% | binding activity relative to T0 [6]: 91%
B1: human monoclonal IgG1 antibody that binds to and neutralizes human GM-CSF (antibody, V domains shown)
VH: QVQLVQSGAEVKKPGASVKVSCKAFGYPFTDYLLHWVRQAPGQGLEWVGWLNPYSGDTNYAQKFQGRVTMTRDTSISTAYMELSRLRSDDTAVYYCTRTTLISVYFDYWGQGTMVTVSS
VL: DIQMTQSPSSVSASVGDRVTIACRASQNIRNILNWYQQRPGKAPQLLIYAASNLQSGVPSRFSGSGSGTDFTLTINSLQPEDFATYYCQQSYSMPRTFGGGTKLEIKR
notes: also called the antibody; anti-GM-CSF antibody
